Measurements from patent US20260055205A1 (published 2026).
Like-named read-outs stand apart in the source and are kept apart here.

How the values were obtained:
human PSMA = target: T1, human PSMA (human, UniProt Q04609 44-750, limits assumed); assay: binding screen
T1 construct: also called huPSMA; hPSMA

human CD3 epsilon [1] = target: T2, human CD3 epsilon (human, UniProt P07766 23-126, limits assumed); assay: Octet, crude lysate
T2 construct: also called huCD3e
Procedure, shortened: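 Bispecific paTCE variants pairing PSMA.5 with single CD3.23 point mutants expressed individually; stability and affinity assessed by Octet biolayer interferometry using crude lysate.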

human CD3 epsilon [2] = target: T2, human CD3 epsilon; assay: Octet, crude lysate; remark: listed apart in the source
Protocol: Pool 2 consisted of paTCE molecules each containing PSMA.262 and one of 64 CD3.23 mutation combination variants. Stability and affinity of the individually expressed molecules in the form of crude lysate was evaluated by Octet. […] The binding of these anti-CD3 molecules (CD3.227, CD3.228, CD3.229 and CD3.230) to human and cynomolgus CD3 was measured by Octet and the Tm was measured by Differential Scanning Fluorimetry. All variants were paired with PSMA.262 except for CD3.23 which was paired with PSMA.5.

T2 sequence (P07766 23-126 limits assumed): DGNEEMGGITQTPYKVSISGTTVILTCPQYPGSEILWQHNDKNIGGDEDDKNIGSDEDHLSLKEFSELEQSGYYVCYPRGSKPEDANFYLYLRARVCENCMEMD
T1 sequence (Q04609 44-750 limits assumed): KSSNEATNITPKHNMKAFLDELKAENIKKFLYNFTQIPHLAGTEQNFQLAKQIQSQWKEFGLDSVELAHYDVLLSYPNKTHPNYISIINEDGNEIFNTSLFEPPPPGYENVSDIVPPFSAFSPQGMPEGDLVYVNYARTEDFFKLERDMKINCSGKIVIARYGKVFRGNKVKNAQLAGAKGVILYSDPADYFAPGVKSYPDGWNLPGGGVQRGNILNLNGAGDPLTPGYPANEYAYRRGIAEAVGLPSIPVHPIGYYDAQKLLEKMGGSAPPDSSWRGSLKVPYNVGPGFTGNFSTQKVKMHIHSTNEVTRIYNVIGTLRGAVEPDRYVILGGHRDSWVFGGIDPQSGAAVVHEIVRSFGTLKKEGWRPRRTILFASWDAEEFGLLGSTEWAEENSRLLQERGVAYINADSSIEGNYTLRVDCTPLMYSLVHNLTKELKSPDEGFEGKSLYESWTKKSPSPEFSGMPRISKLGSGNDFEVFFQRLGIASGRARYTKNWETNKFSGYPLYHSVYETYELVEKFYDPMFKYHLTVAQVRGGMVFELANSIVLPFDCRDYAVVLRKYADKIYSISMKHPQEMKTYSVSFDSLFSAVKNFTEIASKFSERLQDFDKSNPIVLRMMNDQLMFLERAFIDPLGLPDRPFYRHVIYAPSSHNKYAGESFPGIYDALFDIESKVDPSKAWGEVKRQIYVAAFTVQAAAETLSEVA

| Binder | Kd (human PSMA) [nM] | Kd (human CD3 epsilon [1]) [nM] | further results |
| --- | --- | --- | --- |
| PSMA.250 (bispecific antibody, V domains shown, TCE with CD3.23; also called AC3461) VH: QVQLVESGGGVVQPGRSLRLSCAASGRTFGIYVMGWYRQAPGKEREFVAAMSWSGSNRKVSDSVKGRFTISRDNSKNTLYLQMNSLRAEDTAVYYCAASNKLYGRTWYDFNESDYWGQGTQVTVSS | 6.2 |  |  |
| PSMA.256 (bispecific antibody, V domains shown, TCE with CD3.23; also called AC3467) VH: QVQLVESGGGVVQPGRSLRLSCAASGRTFGIYVMGWYRQAPGKEREFVAAMSWSGSNRKVSDSVKGRFTISRDNSKNTLYLQMNSLRAEDTAVYYCAASNRLYGRTWYDFNESDYWGQGTQVTVSS | 3.4 |  |  |
| PSMA.257 (bispecific antibody, V domains shown, TCE with CD3.23; also called AC3468) VH: QVQLVESGGGVVQPGRSLRLSCAASGRTFGIYVMGWYRQAPGKEREFVAAISWSGSNRKVSDSVKGRFTISRDNSKNTLYLQMNSLRAEDTAVYYCAASNRLYGRTWYDFNESDYWGQGTQVTVSS | 2.3 |  |  |
| PSMA.251 (bispecific antibody, V domains shown, TCE with CD3.23; also called AC3462) VH: QVQLVESGGGVVQPGRSLRLSCAASGRTFGIYVMGWYRQAPGKEREFVAAISWSGSNRKVSDSVKGRFTISRDNSKNTLYLQMNSLRAEDTAVYYCAASNKLYGRTWYDFNESDYWGQGTQVTVSS | 5.1 |  |  |
| PSMA.266 (bispecific antibody, V domains shown, TCE with CD3.23; also called AC3475) VH: QVQLVESGGGVVQPGRSLRLSCAASGRTFGIYVWGWVRQAPGKEREFVAAMSWSGSNRKVSDSVKGRFTISRDNSKNTLYLQMNSLRAEDTAVYYCAASNKLYGRTWYDFNESDYWGQGTQVTVSS | 4.6 |  |  |
| PSMA.260 (bispecific antibody, V domains shown, TCE with CD3.23; also called AC3469) VH: QVQLVESGGGVVQPGRSLRLSCAASGRTFGIYAMGWVRQAPGKEREFVGAISWSGSNRKVSDSVKGRFTISRDNSKNTLYLQMNSLRAEDTAVYYCAASNKLYGRTWYDFNESDYWGQGTQVTVSS | 11.4 |  |  |
| PSMA.264 (bispecific antibody, V domains shown, TCE with CD3.23; also called AC3473) VH: QVQLVESGGGVVQPGRSLRLSCAASGRTFGIYAMGWVRQAPGKEREFVAAMSWSGSNRKVSDSVKGRFTISRDNSKNTLYLQMNSLRAEDTAVYYCAASNKLYGRTWYDFNESDYWGQGTQVTVSS | 18.6 |  |  |
| PSMA.252 (bispecific antibody, V domains shown, TCE with CD3.23; also called AC3463) VH: QVQLVESGGGVVQPGRSLRLSCAASGRTFGIYVMGWYRQAPGKEREFVAAMSWSGSNRKVSDSVKGRFTISRDNSKNTLYLQMNSLRAEDTAVYYCAASNRWYGRTWYDFNESDYWGQGTQVTVSS | 15.9 |  |  |
| PSMA.268 (bispecific antibody, V domains shown, TCE with CD3.23; also called AC3477) VH: QVQLVESGGGVVQPGRSLRLSCAASGRTFGIYAMGWVRQAPGKEREFVGAISWSGSNRKVSDSVKGRFTISRDNSKNTLYLQMNSLRAEDTAVYYCAASNRTYGRTWYDFNESDYWGQGTQVTVSS | 131 |  |  |
| PSMA.267 (bispecific antibody, V domains shown, TCE with CD3.23; also called AC3476) VH: QVQLVESGGGVVQPGRSLRLSCAASGRTFGIYVMGWFRQAPGKEREFVAAMSWSGSNRKVSDSVKGRFTISRDNSKNTLYLQMNSLRAEDTAVYYCAASNKLYGRTWYDFNESDYWGQGTQVTVSS | 5.6 |  |  |
| PSMA.255 (bispecific antibody, V domains shown, TCE with CD3.23; also called AC3466) VH: QVQLVESGGGVVQPGRSLRLSCAASGRTFGIYVMGWYRQAPGKEREFVAAISWSGSNRKVSDSVKGRFTISRDNSKNTLYLQMNSLRAEDTAVYYCAASNRYYGRTWYDFNESDYWGQGTQVTVSS | 18.9 |  |  |
| PSMA.261 (bispecific antibody, V domains shown, TCE with CD3.23; also called AC3470) VH: QVQLVESGGGVVQPGRSLRLSCAASGRTFGIYVFGWVRQAPGKEREFVGAISWSGSNRKVSDSVKGRFTISRDNSKNTLYLQMNSLRAEDTAVYYCAASNKLYGRTWYDFNESDYWGQGTQVTVSS | 2.1 |  |  |
| PSMA.265 (bispecific antibody, V domains shown, TCE with CD3.23; also called AC3474) VH: QVQLVESGGGVVQPGRSLRLSCAASGRTFGIYVFGWVRQAPGKEREFVAAMSWSGSNRKVSDSVKGRFTISRDNSKNTLYLQMNSLRAEDTAVYYCAASNKLYGRTWYDFNESDYWGQGTQVTVSS | 3.9 |  |  |
| PSMA.254 (bispecific antibody, V domains shown, TCE with CD3.23; also called AC3465) VH: QVQLVESGGGVVQPGRSLRLSCAASGRTFGIYVMGWYRQAPGKEREFVAAMSWSGSNRKVSDSVKGRFTISRDNSKNTLYLQMNSLRAEDTAVYYCAASNRYYGRTWYDFNESDYWGQGTQVTVSS | 41 |  |  |
| PSMA.253 (bispecific antibody, V domains shown, TCE with CD3.23; also called AC3464) VH: QVQLVESGGGVVQPGRSLRLSCAASGRTFGIYVMGWYRQAPGKEREFVAAISWSGSNRKVSDSVKGRFTISRDNSKNTLYLQMNSLRAEDTAVYYCAASNRWYGRTWYDFNESDYWGQGTQVTVSS | 8.5 |  |  |
| CD3.101 (bispecific antibody, V domains shown, paTCE with PSMA.5; also called AC3430; N82bS) VH: EVQLLESGGGIVQPGGSLKLSCAASGFTFNTYAMNWVRQAPGKGLEWVARIRSKYNNYATYYADSVKDRFTISRDDSKNTVYLQMNSLKTEDTAVYYCVRHENFGNSYVSWFAHWGQGTLVTVSS VL: ELVVTQEPSLTVSPGGTVTLTCRSSNGAVTSSNYANWVQQKPGQAPRGLIGGTNKRAPGTPARFSGSLLGGKAALTLSGVQPEDEAVYYCALWYPNLWVFGGGTKLTVL |  | 4.8 |  |
| CD3.104 (bispecific antibody, V domains shown, paTCE with PSMA.5; also called AC3433; L67Q) VH: EVQLLESGGGIVQPGGSLKLSCAASGFTFNTYAMNWVRQAPGKGLEWVARIRSKYNNYATYYADSVKDRFTISRDDSKNTVYLQMNNLKTEDTAVYYCVRHENFGNSYVSWFAHWGQGTLVTVSS VL: ELVVTQEPSLTVSPGGTVTLTCRSSNGAVTSSNYANWVQQKPGQAPRGLIGGTNKRAPGTPARFSGSLQGGKAALTLSGVQPEDEAVYYCALWYPNLWVFGGGTKLTVL |  | 4.6 |  |
| CD3.102 (bispecific antibody, V domains shown, paTCE with PSMA.5; also called AC3431; N82bY) VH: EVQLLESGGGIVQPGGSLKLSCAASGFTFNTYAMNWVRQAPGKGLEWVARIRSKYNNYATYYADSVKDRFTISRDDSKNTVYLQMNYLKTEDTAVYYCVRHENFGNSYVSWFAHWGQGTLVTVSS VL: ELVVTQEPSLTVSPGGTVTLTCRSSNGAVTSSNYANWVQQKPGQAPRGLIGGTNKRAPGTPARFSGSLLGGKAALTLSGVQPEDEAVYYCALWYPNLWVFGGGTKLTVL |  | 5.2 |  |
| CD3.110 (bispecific antibody, V domains shown, paTCE with PSMA.5; also called AC3439; L66T) VH: EVQLLESGGGIVQPGGSLKLSCAASGFTFNTYAMNWVRQAPGKGLEWVARIRSKYNNYATYYADSVKDRFTISRDDSKNTVYLQMNNLKTEDTAVYYCVRHENFGNSYVSWFAHWGQGTLVTVSS VL: ELVVTQEPSLTVSPGGTVTLTCRSSNGAVTSSNYANWVQQKPGQAPRGLIGGTNKRAPGTPARFSGSTLGGKAALTLSGVQPEDEAVYYCALWYPNLWVFGGGTKLTVL |  | 8.9 |  |
| CD3.109 (bispecific antibody, V domains shown, paTCE with PSMA.5; also called AC3438; L66N) VH: EVQLLESGGGIVQPGGSLKLSCAASGFTFNTYAMNWVRQAPGKGLEWVARIRSKYNNYATYYADSVKDRFTISRDDSKNTVYLQMNNLKTEDTAVYYCVRHENFGNSYVSWFAHWGQGTLVTVSS VL: ELVVTQEPSLTVSPGGTVTLTCRSSNGAVTSSNYANWVQQKPGQAPRGLIGGTNKRAPGTPARFSGSNLGGKAALTLSGVQPEDEAVYYCALWYPNLWVFGGGTKLTVL |  | 8.3 |  |
| CD3.103 (bispecific antibody, V domains shown, paTCE with PSMA.5; also called AC3432; A49G, Y52cG, D65G, N82bS) VH: EVQLLESGGGIVQPGGSLKLSCAASGFTFNTYAMNWVRQAPGKGLEWVGRIRSKYNNGATYYADSVKGRFTISRDDSKNTVYLQMNSLKTEDTAVYYCVRHENFGNSYVSWFAHWGQGTLVTVSS VL: ELVVTQEPSLTVSPGGTVTLTCRSSNGAVTSSNYANWVQQKPGQAPRGLIGGTNKRAPGTPARFSGSLLGGKAALTLSGVQPEDEAVYYCALWYPNLWVFGGGTKLTVL |  | 11.4 | Kd (human CD3 epsilon [2]): 13.5 nM |
| CD3.107 (bispecific antibody, V domains shown, paTCE with PSMA.5; also called AC3436; L66S) VH: EVQLLESGGGIVQPGGSLKLSCAASGFTFNTYAMNWVRQAPGKGLEWVARIRSKYNNYATYYADSVKDRFTISRDDSKNTVYLQMNNLKTEDTAVYYCVRHENFGNSYVSWFAHWGQGTLVTVSS VL: ELVVTQEPSLTVSPGGTVTLTCRSSNGAVTSSNYANWVQQKPGQAPRGLIGGTNKRAPGTPARFSGSSLGGKAALTLSGVQPEDEAVYYCALWYPNLWVFGGGTKLTVL |  | 7.3 |  |
| CD3.105 (bispecific antibody, V domains shown, paTCE with PSMA.5; also called AC3434; G68E) VH: EVQLLESGGGIVQPGGSLKLSCAASGFTFNTYAMNWVRQAPGKGLEWVARIRSKYNNYATYYADSVKDRFTISRDDSKNTVYLQMNNLKTEDTAVYYCVRHENFGNSYVSWFAHWGQGTLVTVSS VL: ELVVTQEPSLTVSPGGTVTLTCRSSNGAVTSSNYANWVQQKPGQAPRGLIGGTNKRAPGTPARFSGSLLEGKAALTLSGVQPEDEAVYYCALWYPNLWVFGGGTKLTVL |  | 4.9 |  |
| CD3.106 (bispecific antibody, V domains shown, paTCE with PSMA.5; also called AC3435; L67D) VH: EVQLLESGGGIVQPGGSLKLSCAASGFTFNTYAMNWVRQAPGKGLEWVARIRSKYNNYATYYADSVKDRFTISRDDSKNTVYLQMNNLKTEDTAVYYCVRHENFGNSYVSWFAHWGQGTLVTVSS VL: ELVVTQEPSLTVSPGGTVTLTCRSSNGAVTSSNYANWVQQKPGQAPRGLIGGTNKRAPGTPARFSGSLDGGKAALTLSGVQPEDEAVYYCALWYPNLWVFGGGTKLTVL |  | 6.1 |  |
| CD3.108 (bispecific antibody, V domains shown, paTCE with PSMA.5; also called AC3437; L66K) VH: EVQLLESGGGIVQPGGSLKLSCAASGFTFNTYAMNWVRQAPGKGLEWVARIRSKYNNYATYYADSVKDRFTISRDDSKNTVYLQMNNLKTEDTAVYYCVRHENFGNSYVSWFAHWGQGTLVTVSS VL: ELVVTQEPSLTVSPGGTVTLTCRSSNGAVTSSNYANWVQQKPGQAPRGLIGGTNKRAPGTPARFSGSKLGGKAALTLSGVQPEDEAVYYCALWYPNLWVFGGGTKLTVL |  | 3.2 |  |
